Where no end group is shown, it is not given here. [ ]: non-standard residue; d: D form. The star is where a group is joined. Biotin = O=C1N[C@H]2[C@H](CS[C@H]2CCCCC(=O)*)N1; pS = N[C@@H](COP(=O)(O)O)C(=O)O
B1: biotin-labeled C-terminal γH2AX peptide (peptide)
peptide: Biotin-GKKATQA[pS]QEY
notes: C terminus of H2AX, printed as BGKKATQApSQEY; also called biotin-γH2AXp; source: synthetic peptide (GL Biochem, Shanghai)

Assays:
GST-SIRT6 K33R (human) = assay: fluorescence polarization; details: Pull-down: 10 mM Tris-Cl pH 7.5, 100 mM NaCl, 0.01% NP40, 10% glycerol, 4 C overnight, 10 pmol DNA and 0.5 ug protein in 300 ul; FP buffer not in material
GST-SIRT6 WT (human) = assay: fluorescence polarization; details: 20 nM FAM-DNA; Pull-down: 10 mM Tris-Cl pH 7.5, 100 mM NaCl, 0.01% NP40, 10% glycerol, 4 C overnight, 10 pmol DNA and 0.5 ug protein in 300 ul; FP buffer not in material
GST-SIRT6 K33R = target: T1, GST-SIRT6 K33R (human, UniProt Q8N6T7 1-355, K33R); assay: pull-down; 1 μg biotinylated peptide with 1 μg GST-SIRT6 in 50 mM Tris-HCl, 200 mM NaCl, 0.05% NP40 overnight at 4°C; Streptavidin Sepharose beads 1 hr at 4°C; western blot; details: both partners purified
T1 construct: SIRT6, human, lysine 33 to arginine, as GST fusion
T1 sequence (Q8N6T7 whole entry K33R, the tested form may be a part): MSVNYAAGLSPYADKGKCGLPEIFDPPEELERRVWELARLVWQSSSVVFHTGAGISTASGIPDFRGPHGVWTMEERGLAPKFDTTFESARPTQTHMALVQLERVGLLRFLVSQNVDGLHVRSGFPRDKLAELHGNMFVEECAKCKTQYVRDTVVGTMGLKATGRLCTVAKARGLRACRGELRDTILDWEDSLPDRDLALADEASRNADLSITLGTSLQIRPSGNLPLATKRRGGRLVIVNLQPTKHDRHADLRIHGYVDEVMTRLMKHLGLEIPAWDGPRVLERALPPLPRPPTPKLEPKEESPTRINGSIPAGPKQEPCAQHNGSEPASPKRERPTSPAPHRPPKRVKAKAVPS

Molecule	Kd (GST-SIRT6 K33R (human))	Kd (GST-SIRT6 WT (human))	binding result (GST-SIRT6 K33R)
FAM-labeled DNA duplex	105 nM	166 nM	
B1			binds

Source: article PMC7324161, “Synergy between SIRT1 and SIRT6 helps recognize DNA breaks and potentiates the DNA damage response and repair in humans and mice” (eLife, 2020)
